Reference: PMC3448598, “A Role for the CAL1-Partner Modulo in Centromere Integrity and Accurate Chromosome Segregation in Drosophila” (PLoS ONE, 2012)

T1: FLAG-CAL1 (Drosophila, UniProt Q9VEN2 1-979)
T1 construct: Chromosome Alignment 1 (CAL1), Drosophila; The results say the fusion is expressed under the endogenous CAL1 promoter, the methods say under the pCopia promoter; also called FLAG-tagged CAL1; Chromosome Alignment 1; source: Drosophila S2 cells stably expressing FLAG-CAL1, in chromatin-free extract / nuclear (chromatin) extract; not shown: FLAG, N-terminal, kept
T1 sequence (looked up): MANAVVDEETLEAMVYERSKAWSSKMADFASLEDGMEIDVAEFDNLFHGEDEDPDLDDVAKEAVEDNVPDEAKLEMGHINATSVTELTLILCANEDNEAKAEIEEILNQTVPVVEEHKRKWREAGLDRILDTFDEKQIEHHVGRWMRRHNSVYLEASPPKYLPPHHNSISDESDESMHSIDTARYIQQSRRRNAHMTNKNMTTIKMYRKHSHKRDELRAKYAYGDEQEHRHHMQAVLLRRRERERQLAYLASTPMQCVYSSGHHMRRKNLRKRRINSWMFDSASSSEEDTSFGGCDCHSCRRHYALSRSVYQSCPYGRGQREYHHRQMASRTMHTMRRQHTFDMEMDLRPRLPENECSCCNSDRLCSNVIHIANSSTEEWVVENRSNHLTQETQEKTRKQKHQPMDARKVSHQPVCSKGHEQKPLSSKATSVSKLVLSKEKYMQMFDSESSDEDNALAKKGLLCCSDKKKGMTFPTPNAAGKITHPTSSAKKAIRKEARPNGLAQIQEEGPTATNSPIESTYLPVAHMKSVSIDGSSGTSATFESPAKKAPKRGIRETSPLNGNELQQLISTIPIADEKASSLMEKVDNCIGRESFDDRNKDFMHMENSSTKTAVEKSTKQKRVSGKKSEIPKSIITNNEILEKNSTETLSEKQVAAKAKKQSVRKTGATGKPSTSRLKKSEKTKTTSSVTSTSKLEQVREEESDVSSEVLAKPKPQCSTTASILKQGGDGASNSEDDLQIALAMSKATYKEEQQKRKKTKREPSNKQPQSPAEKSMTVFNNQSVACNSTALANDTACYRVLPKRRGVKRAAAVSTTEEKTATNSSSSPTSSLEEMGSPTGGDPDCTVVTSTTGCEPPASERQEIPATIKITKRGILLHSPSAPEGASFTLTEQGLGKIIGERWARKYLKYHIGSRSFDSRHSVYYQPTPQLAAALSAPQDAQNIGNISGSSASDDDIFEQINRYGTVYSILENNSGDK

B1: Modulo (natural protein, Drosophila (endogenous in S2 cells), UniProt P13469 1-542, looked up)
chain: MAQKKAVTVKGKKATNGEEKPLAKRVTKSTKVQEEETVVPQSPSKKSRKQPVKEVPQFSEEDESDVEEQNDEQPGDDSDFETEEAAGLIDDEAEEDEEYNSDDEEDDDDDELEPGEVSKSEGADEVDESDDDEEAPVEKPVSKKSEKANSEKSEENRGIPKVKVGKIPLGTPKNQIVFVTNLPNEYLHKDLVALFAKFGRLSALQRFTNLNGNKSVLIAFDTSTGAEAVLQAKPKALTLGDNVLSVSQPRNKEENNERTVVVGLIGPNITKDDLKTFFEKVAPVEAVTISSNRLMPRAFVRLASVDDIPKALKLHSTELFSRFITVRRISQESISRTSELTLVVENVGKHESYSSDALEKIFKKFGDVEEIDVVCSKAVLAFVTFKQSDAATKALAQLDGKTVNKFEWKLHRFERSTSGRAILVTNLTSDATEADLRKVFNDSGEIESIIMLGQKAVVKFKDDEGFCKSFLANESIVNNAPIFIEPNSLLKHRLLKKRLAIGQTRAPRKFQKDTKPNFGKKPFNKRPAQENGGKSFVKRARF
notes: Modulo, Drosophila nucleolar protein, endogenous in S2 cells; runs as a 75 KDa protein; also called nucleolar protein Modulo; Drosophila nucleolin homolog; source: endogenous, Drosophila S2 cells, in chromatin-free extract / nuclear (chromatin) extract

Experiments:
[1] = biological target: B1; assay: co-IP; anti-Modulo antibody coupled to Dynabead Protein-A, 2 h at 4°C, extracts of nuclei from S2 cells; mock IP without antibody; Western blot with anti-CAL1; conditions: partners not purified
[2] = biological target: T1, FLAG-CAL1; assay: co-IP; anti-FLAG M2 agarose, 2 h at 4°C, extracts of nuclei from S2 cells stably expressing FLAG-CAL1 and from untagged S2 cells; Western blot with anti-Modulo; quantified with Image J; conditions: partners not purified

fold enrichment in the anti-Modulo IP over the mock IP [1] [fold] | fold enrichment in the FLAG-CAL1 IP over the IP from untagged S2 cells [2] [fold] | Binder
8 | – | CAL1 (natural protein, Drosophila (endogenous in S2 cells), UniProt Q9VEN2 1-979, looked up, Chromosome Alignment 1 (CAL1), Drosophila, endogenous in untransfected S2 cells; runs approximately as a 150 KDa protein; also called Chromosome Alignment 1; source: endogenous, Drosophila S2 cells, in nuclear (chromatin) extract) MANAVVDEETLEAMVYERSKAWSSKMADFASLEDGMEIDVAEFDNLFHGEDEDPDLDDVAKEAVEDNVPDEAKLEMGHINATSVTELTLILCANEDNEAKAEIEEILNQTVPVVEEHKRKWREAGLDRILDTFDEKQIEHHVGRWMRRHNSVYLEASPPKYLPPHHNSISDESDESMHSIDTARYIQQSRRRNAHMTNKNMTTIKMYRKHSHKRDELRAKYAYGDEQEHRHHMQAVLLRRRERERQLAYLASTPMQCVYSSGHHMRRKNLRKRRINSWMFDSASSSEEDTSFGGCDCHSCRRHYALSRSVYQSCPYGRGQREYHHRQMASRTMHTMRRQHTFDMEMDLRPRLPENECSCCNSDRLCSNVIHIANSSTEEWVVENRSNHLTQETQEKTRKQKHQPMDARKVSHQPVCSKGHEQKPLSSKATSVSKLVLSKEKYMQMFDSESSDEDNALAKKGLLCCSDKKKGMTFPTPNAAGKITHPTSSAKKAIRKEARPNGLAQIQEEGPTATNSPIESTYLPVAHMKSVSIDGSSGTSATFESPAKKAPKRGIRETSPLNGNELQQLISTIPIADEKASSLMEKVDNCIGRESFDDRNKDFMHMENSSTKTAVEKSTKQKRVSGKKSEIPKSIITNNEILEKNSTETLSEKQVAAKAKKQSVRKTGATGKPSTSRLKKSEKTKTTSSVTSTSKLEQVREEESDVSSEVLAKPKPQCSTTASILKQGGDGASNSEDDLQIALAMSKATYKEEQQKRKKTKREPSNKQPQSPAEKSMTVFNNQSVACNSTALANDTACYRVLPKRRGVKRAAAVSTTEEKTATNSSSSPTSSLEEMGSPTGGDPDCTVVTSTTGCEPPASERQEIPATIKITKRGILLHSPSAPEGASFTLTEQGLGKIIGERWARKYLKYHIGSRSFDSRHSVYYQPTPQLAAALSAPQDAQNIGNISGSSASDDDIFEQINRYGTVYSILENNSGDK
– | 5 | B1
